Measurements: patent US10323078B2, “Isolated peptides and fragments thereof from fibrinogen for use as drugs, particularly in skin inflammatory diseases” (Universite Paris Descartes, priority 2015, dated 2019)

How the values were obtained:
[1] = system: Pfg; assay: Binding of biotinylated Pfg to immobilized fibrinogen (polystyrene plate); parameters: species or system Propionibacterium acnes; details: various quantities of fibrinogen immobilized; biotinylated Pfg 0.1 μg/ml, 2 h at 23° C.
Procedure: FIG. 5: Binding of P. acnes surface proteins to fibrinogen. (A) Various quantities of human fibrinogen (hFg) and bovine fibrinogen (bFg) were immobilized onto a 96-well polystyrene plate at 4° C. for 18 h and incubated with biotinylated Pfg at 0.1 μg/ml for 2 h at 23° C. Bovine serum albumin (BSA) was used as negative control. Bound material was detected by using the HRP-streptavidin conjugate. Peroxidase activity was measured by using the ABTS substrate at 405 nm. Proteins (10 μg per lane) were separated by 10% SDS-PAGE and detected by (B) Commassie blue staining, and transferred to nitrocellulose membrane and incubated with (C) HRP-streptavidine alone, and (D) biotinylated Pfg (0.1 μg/ml). Lanes 1: molecular weight standards. Lane 2: BSA. […]
To characterize the interaction between P. acnes and ligands, we used biotinylated molecules in quantitative and qualitative assays. […] For quantitative analysis, unlabeled protein were diluted into 50 mM carbonate-bicarbonate, pH 9.6 buffer to yield a protein concentration ranging from 0.01 to 50 μg/ml, and then immobilized to 96-well polystyrene plates at 4° C. overnight. […] After washing, bound peroxidase was detected using the chromogenic peroxidase substrate ABTS. […] Binding activity was detected by incubating the membranes with 20 ml of PBT containing biotinylated proteins (0.1 μg/ml) for 2 h at room temperature followed by three washes with PBT. […]

[2] = system: ThP1 cells; assay: TNF-α production by P. acnes-stimulated ThP1 (ELISA); format: cell-based, human; details: 0.87 to 7 μM
Procedure: For experiences of stimulation with P. acnes, cells were incubated with the P. acnes suspension adjusted at the appropriate concentration, pre-treated for 1 h at 37° C. or not with fibrinogen recombinant peptides Fg1 and Fg2 at the concentrations 0.87, 1.75, 3.5 or 7 μM for the desired period of time at 37° C. in 5% CO2.
Human IL-1ß, IL-8, IL-12, hBD-2, and TNF-α protein concentration was measured in the supernatants of stimulated cells using various ELISA Set kits (Ready-Set-Go kit from eBioscience for acne experiments, and for psoriasis experiments the Duo set IL-8 kit from R&D Systems and the BD-2 Human Development (hBD-2) from Peprotech) according to the manufacturer's instructions. We used serial dilutions of recombinant human IL-1ß, IL-8, IL-12 and TNF-α for standard curve. The optical density was determined at 450 nm at a wavelength correction of 540 nm.
To assess the efficacy of Fg1 recombinant peptide, the production of O2^∘− and H2O2 by HaCaT cells NHDK, THP-1, MRC5 and HDF stimulated by pretreated P. acnes strains 6919, RON and PIE was measured. The amount of ROS produced was compared to that produced by the stimulated cells with untreated bacteria. Production baseline was obtained by measuring ROS on unstimulated cells. The production of IL-1ß, IL-8, IL-12 and TNF-α was also measured in all conditions cited above. The measurement of the production of ROS is performed by spectrofluorimetry in the presence of specific fluorochromes directly on the monolayer cell. Measurement of cytokine production was performed in parallel on the cell culture supernatant.
Two sets of experiments were implemented: 1) The cells were stimulated (18 h at 37° C.) by P. acnes strains previously pretreated with Fg1 and Fg2 peptides at the final concentrations ranging from 0.87 to 7 μM for 1 h at 37° C.; and 2) The cells were pretreated first with Fg1 and Fg2 peptides at the final concentrations ranging from 0.87 to 7 μM for 24 h at 37° C. and stimulated (18 h at 37° C.) by P. acnes strains.

“human fibrinogen: purified commercial human fibrinogen (Sigma), glycoprotein hexamer of Aα, Bß and γ chains” was tested, and the “Binding of biotinylated Pfg to immobilized fibrinogen” value [1] was “dose-dependent with a higher affinity for hFg”.

B1: MKRMVSWSFHKLKTMKHLLLLLLCVFLVKSQGVNDNEEGFFSARGHRPLDKKREEAPSLRPAPPPISGGGYRARPAKAAATQKKVERKAPDAGGCLHADPDLGVLC (protein)
chain: MKRMVSWSFHKLKTMKHLLLLLLCVFLVKSQGVNDNEEGFFSARGHRPLDKKREEAPSLRPAPPPISGGGRARPAKAAATQKKVERKAPDAGGCLHADPDLGVLCMKRMVSWSFHKLKTMKHLLLLLLCVFLVKSQGVNDNEEGFFSARGHRPLDKKREEAPSLRPAPPPISGGGYRARPAKAAATQKKVERKAPDAGGCLHADPDLGVLC
modifications: GST fusion; fragment Fg1
notes: fragment of Bß chain of human fibrinogen having 106 amino acids; recombinant GST-fused peptide expressed in E. coli
In the case of B1, the “Inhibition of Interleukine TNF alpha (TNF-α) production” value (“Inhibition of Interleukine TNF alpha” below) ([2]; P. acnes 6919, set I, bacteria first pretreated) is reported as “pos”, the “Inhibition of Interleukine TNF alpha” value ([2]; P. acnes 6919, set II, cells first pretreated) is reported as “pos” and the “Inhibition of Interleukine TNF alpha” value ([2]; P. acnes PIE, set I, bacteria first pretreated) is reported as “pos”. For the same molecule, the “Inhibition of Interleukine TNF alpha” value ([2]; P. acnes PIE, set II, cells first pretreated) was “pos”, the “Inhibition of Interleukine TNF alpha” value ([2]; P. acnes RON, set I, bacteria first pretreated) was “pos” and the “Inhibition of Interleukine TNF alpha” value ([2]; P. acnes RON, set II, cells first pretreated) was “pos”.
